Experimental findings from patent US20160199473A1 (Johns Hopkins, published 2016) are described below.

The target of assay [1] is T1, HLA-A3 (HLA-A301 allele) on T2-A3 cells (human).
T1 construct: whole, on cells; MHC class I molecule on the surface of T2-A3 cells
Description: T2 binding assay, flow cytometry with GAPA3 (FIG. 1E). An excerpt:
(§1) Peptide pulsed cells were stained with an unlabeled mouse anti-HLA class I molecule monoclonal antibody W6/32 and a goat-anti-mouse FITC-labeled IgG2a secondary antibody. FIG. 1E. T2 cells genetically modified to express A3 and pulsed with either: Mesothelin A1309-318 binding peptide (green line), PSCA A399-107 (pink line), A35-13 (blue line), A314-22 (orange line), A3109-117 (purple line), A343-51 (red line), and PSCA A320-28 (yellow line). Peptide pulsed cells were stained with an unlabeled mouse anti-human HLA-A3 specific monoclonal antibody GAPA3 and a FITC-labeled IgG2a secondary antibody. FIG. 1F. T2 cells genetically modified to express A24 and pulsed with either: Mesothelin A1309-318 peptide (green line), PSCA A2476-84 (pink line), PSCA A24108-116 (blue line), PSCA A2499-107 (orange line), PSCA A24109-117 (purple line), and PSCA A2477-85 (red line). Peptide pulsed cells were stained with an unlabeled pan-HLA antibody W6/32 and a FITC-labeled IgG2a secondary antibody.
(§2) Binding of these epitopes to their respective HLA class I molecule was tested by pulsing TAP deficient T2 cells that expressed the corresponding HLA class I molecule (T2-A2, T2-A3, or T2-A24 cells). […] Binding of T2 cells pulsed with two candidate mesothelin derived HLA-A3 and two candidate HLA-A24 epitopes are shown in FIG. 1B and FIG. 1C, respectively. A similar binding experiment was done with the PSCA derived peptides for HLA-A2, HLA-A3, and HLA-A24. (FIG. 1D, FIG. 1E and FIG. 1F).
(§3) Materials and Methods: Peptide/MHC binding Assays. T2 cells expressing the HLA molecule of interest were resuspended in AimV serum free media (Gibco) to a concentration of 2.5×10⁵ cells/ml and pulsed with 100-200 micrograms of peptide at room temperature overnight. Pulsing at room temperature allows for optimizing the number of empty HLA molecules available for binding each epitope (30). The cells were washed and resuspended at 1×10⁵ cells/ml. Peptide binding was determined by FACS (Beckon Dickenson, San Jose, Calif.) analysis.
On the technique in general: In flow cytometry, cells or beads pass a laser one at a time.

Assay [2] has as its target T2, HLA-A2 (HLA-A*0201 allele) on T2 cells (human).
T2 construct: whole, on cells; MHC class I molecule on the surface of T2 cells; also called T2-A2 cells
Description: T2 binding assay, flow cytometry with W6/32 (FIG. 1D).
Text: as §1, §2, §3

The target of assay [3] is T1, HLA-A3 (HLA-A301 allele) on T2-A3 cells. Put plainly: T2 binding assay, flow cytometry with GAPA3 (FIG. 1B).
Text: as §1
(§4) Binding of these epitopes to their respective HLA class I molecule was tested by pulsing TAP deficient T2 cells that expressed the corresponding HLA class I molecule (T2-A2, T2-A3, or T2-A24 cells). […]
(§5) Materials and Methods: Peptide/MHC binding Assays. […] Peptide binding was determined by FACS (Beckon Dickenson, San Jose, Calif.) analysis.

Assay [4] concerns the target T2, HLA-A2 (HLA-A*0201 allele) on T2 cells. Put plainly: T2 peptide/MHC binding assay, flow cytometry with W6/32.
Text: as §1, §4, §5

The target is the same in assay [5]. Description: T2 binding assay, flow cytometry with W6/32 (FIG. 1A).
Text: as §1, §4, §5

B1: PSCA (43-51) peptide QLGEQCWTA (peptide)
peptide: QLGEQCWTA
notes: Synthetic nonamer from prostate stem cell antigen; also called PSCA A3(43-51); PSCA A243-51
Turning to B1, the binding result in assay [1] and in assay [2] was “binds” in each case.

B2: PSCA (99-107) peptide ALQPAAAIL (peptide)
peptide: ALQPAAAIL
notes: Synthetic nonamer from prostate stem cell antigen; also called PSCA A3(99-107); PSCA A24(99-107)
As for B2, in assay [1], the binding result is “binds”.

B3: PSCA (108-116) peptide ALLPALGLL (peptide)
peptide: ALLPALGLL
notes: Synthetic nonamer from prostate stem cell antigen; also called PSCA A2(108-116); PSCA A24(108-116)
In the case of B3, the binding result in assay [2] is “binds”.

B4: Mesothelin A3(83-92) (peptide)
peptide: ELAVALAQK
notes: Synthetic nonamer from mesothelin; printed range spans ten positions; also called MesoA3(83-92)
As for B4, in assay [3], the binding result is on record as “binds”.

B5: Mesothelin A1309-318 binding epitope (EIDESLIFY) (peptide)
peptide: EIDESLIFY
notes: also called Mesothelin A1309-318 peptide
Regarding B5, the binding result in assay [4] was “no binding”.

B6: PSCA (14-22) peptide ALQPGTALL (peptide)
peptide: ALQPGTALL
notes: Synthetic nonamer from prostate stem cell antigen; also called PSCA A2(14-22); PSCA A3(14-22)
B6: the binding result in assay [1] and in assay [2] was “binds” in each case.

B7: Mesothelin A3(225-234) (peptide)
peptide: ALQGGGPPY
notes: Synthetic nonamer from mesothelin; printed range spans ten positions; also called MesoA3(225-234)
Regarding B7, the binding result in assay [3] is on record as “binds”.

B8: Mesothelin A2(530-538) (peptide)
peptide: VLPLTVAEV
notes: Synthetic nonamer from mesothelin; legends print the position as 530-539; also called Mesothelin A2530-539; MesoA2(530-539)
B8: the binding result in assay [5] is “binds”.

B9: PSCA (5-13) peptide LLALLMAGL (peptide)
peptide: LLALLMAGL
notes: Synthetic nonamer from prostate stem cell antigen; also called PSCA A2(5-13); PSCA A3(5-13)
As to B9, the binding result in assay [1] and in assay [2] was “binds” in each case.

B10: PSCA (20-28) peptide ALLCYSCKA (peptide)
peptide: ALLCYSCKA
notes: Synthetic nonamer from prostate stem cell antigen; also called PSCA A3(20-28); PSCA A320-28
With B10, the binding result in assay [1] is “binds”.

B11: Mesothelin A2(20-28) (peptide)
peptide: SLLFLLFSL
notes: Synthetic nonamer from mesothelin; legends print the position as 20-29; also called Mesothelin A220-29; MesoA2(20-29)
As for B11, the binding result in assay [4] is listed as “binds”.

B12: PSCA (109-117) peptide LLPALGLLL (peptide)
peptide: LLPALGLLL
notes: Synthetic nonamer from prostate stem cell antigen; also called PSCA A3(109-117); PSCA A24(109-117)
Take B12: the binding result in assay [1] is “binds”.
